Results: PMC2734569, “Functional mapping of the fission yeast DNA polymerase δ B-subunit Cdc1 by site-directed and random pentapeptide insertion mutagenesis” (BMC Molecular Biology, 2009)

Experiments:
Experiment in all cases: two-hybrid; LexA-Cdc1 bait (pBTM116 or pBTM116BN) with Gal4 activation domain-Cdc27 prey (pGAD2F-Cdc27) in S. cerevisiae CTY10-5d; ONPG liquid culture beta-galactosidase assay, mean of triplicates, as percent of wild-type Cdc1
Details in all cases: partners not purified
Cdc1-J6 = target: T1, Cdc1-J6 (Schizosaccharomyces pombe, UniProt P87324 1-462, Tyr-GlyValProHisTyr-Gly)
T1 construct: Cdc1, S. pombe, with a pentapeptide inserted after residue 124; source: yeast two-hybrid fusion, in S. cerevisiae CTY10-5d
T1 sequence (looked up): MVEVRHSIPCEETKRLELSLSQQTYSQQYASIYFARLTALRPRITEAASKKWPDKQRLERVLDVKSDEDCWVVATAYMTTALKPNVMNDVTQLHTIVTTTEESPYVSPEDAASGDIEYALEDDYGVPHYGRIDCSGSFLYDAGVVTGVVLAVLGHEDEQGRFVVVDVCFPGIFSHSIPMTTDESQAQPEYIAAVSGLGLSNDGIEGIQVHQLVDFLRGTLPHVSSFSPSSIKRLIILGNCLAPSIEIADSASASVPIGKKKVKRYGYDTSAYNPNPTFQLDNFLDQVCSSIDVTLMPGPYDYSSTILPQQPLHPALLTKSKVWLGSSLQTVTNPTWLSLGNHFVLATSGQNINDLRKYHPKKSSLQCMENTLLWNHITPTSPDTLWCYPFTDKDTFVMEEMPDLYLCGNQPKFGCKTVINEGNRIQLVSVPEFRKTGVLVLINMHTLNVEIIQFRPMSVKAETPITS

Cdc1-A2 = target: T2, Cdc1-A2 (Schizosaccharomyces pombe, UniProt P87324 1-462, Gly293Ala)
T2 construct: Cdc1, S. pombe, point mutant; source: yeast two-hybrid fusion, in S. cerevisiae CTY10-5d
T2 sequence (looked up): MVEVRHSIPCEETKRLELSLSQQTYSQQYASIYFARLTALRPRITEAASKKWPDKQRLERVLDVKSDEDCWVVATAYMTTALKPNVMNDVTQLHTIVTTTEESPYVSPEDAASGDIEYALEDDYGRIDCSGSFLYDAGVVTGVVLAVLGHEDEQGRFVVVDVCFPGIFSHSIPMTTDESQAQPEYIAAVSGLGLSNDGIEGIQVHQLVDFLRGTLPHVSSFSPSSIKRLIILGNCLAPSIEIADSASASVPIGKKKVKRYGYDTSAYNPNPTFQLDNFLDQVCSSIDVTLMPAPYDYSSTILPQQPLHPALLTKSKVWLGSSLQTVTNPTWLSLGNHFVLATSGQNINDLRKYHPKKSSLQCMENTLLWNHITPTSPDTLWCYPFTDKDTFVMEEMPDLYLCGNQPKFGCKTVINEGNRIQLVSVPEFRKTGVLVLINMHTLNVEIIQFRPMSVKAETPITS

Cdc1-A7 = target: T3, Cdc1-A7 (Schizosaccharomyces pombe, UniProt P87324 1-462, Gly344Ala)
T3 construct: Cdc1, S. pombe, point mutant; source: yeast two-hybrid fusion, in S. cerevisiae CTY10-5d
T3 sequence (looked up): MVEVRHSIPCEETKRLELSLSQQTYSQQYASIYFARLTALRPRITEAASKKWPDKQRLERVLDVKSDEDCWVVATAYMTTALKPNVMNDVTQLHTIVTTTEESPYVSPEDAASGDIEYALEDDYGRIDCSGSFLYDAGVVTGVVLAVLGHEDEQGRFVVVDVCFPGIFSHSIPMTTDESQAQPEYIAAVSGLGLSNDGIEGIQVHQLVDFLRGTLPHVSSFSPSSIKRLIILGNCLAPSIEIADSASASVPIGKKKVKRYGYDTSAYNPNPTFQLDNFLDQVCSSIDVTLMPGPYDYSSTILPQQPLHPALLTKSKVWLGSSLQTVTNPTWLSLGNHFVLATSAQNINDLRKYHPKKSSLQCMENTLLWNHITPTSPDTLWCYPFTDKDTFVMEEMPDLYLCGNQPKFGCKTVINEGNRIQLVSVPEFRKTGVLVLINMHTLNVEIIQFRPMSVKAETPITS

Cdc1-J2 = target: T4, Cdc1-J2 (Schizosaccharomyces pombe, UniProt P87324 1-462, Tyr-ArgGlyThrProTyr-Ser)
T4 construct: Cdc1, S. pombe, with a pentapeptide inserted after residue 25; also called J18; J20; source: yeast two-hybrid fusion, in S. cerevisiae CTY10-5d
T4 sequence (looked up): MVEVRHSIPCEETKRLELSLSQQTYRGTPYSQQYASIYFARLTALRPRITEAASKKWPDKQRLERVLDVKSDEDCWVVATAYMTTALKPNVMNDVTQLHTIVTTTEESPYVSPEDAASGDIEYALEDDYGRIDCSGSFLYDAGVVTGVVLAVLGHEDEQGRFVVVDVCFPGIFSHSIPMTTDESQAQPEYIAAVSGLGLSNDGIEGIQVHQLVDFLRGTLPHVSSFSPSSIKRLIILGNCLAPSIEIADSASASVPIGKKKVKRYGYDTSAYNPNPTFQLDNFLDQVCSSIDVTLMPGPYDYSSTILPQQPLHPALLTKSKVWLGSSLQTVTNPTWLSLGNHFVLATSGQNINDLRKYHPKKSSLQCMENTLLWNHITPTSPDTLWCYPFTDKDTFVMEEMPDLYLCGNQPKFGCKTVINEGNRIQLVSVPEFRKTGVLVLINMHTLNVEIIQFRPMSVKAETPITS

B1: Cdc27 (fission yeast DNA polymerase delta C-subunit) (natural protein, Schizosaccharomyces pombe, UniProt P30261 1-372, looked up)
chain: MEEWRNFLDIKVINESSLVTVDNLSLQLDISSEKAQEYLNMFYQGNDFLYPIYLIHGQPIDDEINLEIDEESQPISNFPVLQYILCDKSSLQEKQSRLKSGYKTVIFALSSAPLSDFDELLPAVYEIREKDVLYKKEDADKYGFIFNENSVPRVLKKAPSTHSPQLSVPSKTSTIDKTDTRSTEKTKGKDIFSNARNQKGNSSRKNKKAPLENHKEKEPLLPKEEKLSEQAKRERDDLKNIMQLEDESVSTTSVHDSEDDNLDSNNFQLEIGTEAKSAAPDEPQEIIKSVSGGKRRGKRKVKKYATTKDEEGFLVTKEEEVWESFSEDENISTGTSNVVRNKPTTVNIATKKKNTAQSKPQQKSIMSFFGKK
notes: DNA polymerase delta C-subunit Cdc27, S. pombe; prey plasmid pGAD2F-Cdc27; also called pGAD2F-Cdc27; source: yeast two-hybrid fusion, in S. cerevisiae CTY10-5d
Question: With B1 as the binder, how does the “two-hybrid beta-galactosidase activity, % of wild-type Cdc1” value (Cdc1-J6) read?
Answer: The value was under 1%.

Question: And the “two-hybrid beta-galactosidase activity, % of wild-type Cdc1” value (Cdc1-A2)?
Answer: The value was 19%.

Question: What about the “two-hybrid beta-galactosidase activity, % of wild-type Cdc1” value (Cdc1-A7) of the same binder?
Answer: Its value is under 1%.

Question: What about the “two-hybrid beta-galactosidase activity, % of wild-type Cdc1” value (Cdc1-J2) of the same binder?
Answer: The value was under 1%.
